Sequences and labels used below:
B1: Fab3-2 (Fab, V domains shown)
VH: EVQLLESGGGLVQPGGSLRLSCAASGFTFSNYAMSWVRQAPGKGLEWVSLISGSGGSIDYADSVKGRFTISRDNSKNTLYLQMDSLRAEDTAVYYCSKDPIYYDLSGYYAGRIYYFDYWGQGTLVTVSS
VL: EIVMTQSPATLSVSPGDTATLSCRASHSVSRDLAWYQQKPGQAPRLLIYDASTRATGIPARFSGSGSGTEFTLTISSLQSEDFAVYYCQQYINWVTFGPGTKVDIE
B2: Fab1-2 (Fab, V domains shown)
VH: EVQLVESGGGLVQPGGSLRLSCAASGFIFSNYWMSWVRQAPGKGPEWVANIKQDGSANHYVDSVKGRFTISRDNAKNSLYLQMNSLRAEDTAVYYCAREAYQDWNYDYWGQGTLVTVSS
VL: DIQMTQSPSSLSASVGDRVTVTCRASEFISRYLNWYQQKPGKAPKVLIYAASSLQSGVPSRFSGSGSGTDFTLTISSLQPEDFATYYCQQSYSTPYTFGQGTKLEIK
B3: Fab3-1 (Fab, V domains shown)
VH: EVQLLESGGGLVQPGGSLRLSCEASGFTFSRYPMNWVRQAPGKGLEWVSHISASGGTTYYADTVKGRFSISRDNSKNTLYLEMNSLRAEDTAIYFCAKDYPPDEVTMIVVGMPYFDSWGLGTLVSVSS
VL: not shown
B4: Fab2-2 (Fab, V domains shown)
VH: QVQLQESGPGLVKPSVTLSLTCTVSGDSISTYYWSWVRQPPGKGLEWIGYIYYSGNTNYNPSLKSRVTMSVDTSKNQFSLKLNSVTAADTAVYYCARTHHDYGDYRPSYYFDYWGQGTLVTVSS
VL: QSALTQPASVSGSPGQSITISCTGTSSDVGAYDYVSWYQQHPGKAPKLMIYDVSNRPSSGVSNRFSGSKSGNTASLTISGLQAEDEADYYCSSYTSSSTVILGGGTKLTVL
B5: Fab1-5 (Fab, V domains shown)
VH: EVQLVESGGGLVKPGGSLRLSCAASGFMFSSYSMNWVRQAPGKGLEWVSSISRSDSYIDYADSVKGRFTISRDTAMNVLYLQMDSLRAEDTGVYYCARTHVFNMFREVINDDYYGMDVWGQGTTVTVS
VL: ALTQPASVSGSPGQSITISCTGTSSDFGIYNSVSWYQHHPGKAPKLMIFGVSNRPSGVSNRFSGSKSGNTASLSISGLQAEDEADYYCSSFTARSTVVFGGGTKLTVL
B6: Fab3-7 (Fab, V domains shown)
VH: QVQLQESGPGLVKPSETLSLTCTVSGGSISNYYWNWIRQPPGKGLEWIGYVHYSGSTNYNPSLKSRVSVSVDTSKNQFSLNLGSVTAADTAVYYCARQSRSYYNEVITDPKYNFDYWGQGTLVTVSS
VL: QSALTQPASVSGSPGQSITISCTGTSSDVGGYDYVSWYQQHPGKAPKLMIYDVSNRPSGVSNRFSGSKSGNTASLTISGLQAEDEADYYCSSYTSISTLVFGGGTKLTVL
B7: Fab3-5 (Fab, V domains shown)
VH: EVQLVESGGGLVQPGGSLRLSCAASGFTFSNYGMNWVRQAPGKGLEWVSYISSGGTIYYADSVKGRFTISRDNAKNSVYLQMNSLRAEDTAVYYCARDPAYCGDDCYTIPAHYFDYWGQGTPVTVS
VL: DIQMTQSPSSLSASVGDRVTITCRTSQSISRYLNWYQQKPGKAPKLLIYAASSLQSGVPSRFTGSGSGTDFTLTISSLQPEDFATYYCQQSYSIPPVTFGQGTRVD
B8: Fab3-6 (Fab, V domains shown)
VH: EVQLVESGGGLVQPGGSLRLSCSASGFHFSSYEMNWVRQAPGKGLEWVSYISSSGTYIDYADSVKGRFTISRDNPANSLYLQMYSLRAEDTAVYYCARRLWFGELPYSYYYGMDVWGQGTTVTVSS
VL: ALTQPASVSGSPGQSITISCTGTSSDIGGYNYVSWYQQHPGKAPELLIFDVSNRPSGVSNRFSGSKSGNTASLTISGLQAEDEADYHCCSYTRTSTVIFGGGTKLTVL

This experiment addresses AAV9 capsid (adeno-associated virus serotype 9 (AAV9), UniProt Q6JC40). Kind of experiment: cryo-EM structure.
In the case of B1, the binding result was “binds”.

Turning to B2, the binding result was “binds”.

As for B3, the binding result is “binds”.

For B4, the binding result is “binds”.

For the molecule B5, the binding result was “binds”.

B6: the binding result is reported as “binds”.

With B7, the binding result is “binds”.

As to B8, the binding result is “binds”.

Source of the values: publication doi:10.1101/2024.05.01.590489 (bioRxiv, 2024).
